According to PMC9157457 (The Journal of Biological Chemistry, 2022):

Target: the molecule itself
Test: cryo-EM structure

B1: Photobacterium phosphoreum LuxC (acyl-CoA reductase) (enzyme)
chain: IKKIPMIIGGAERDTSEHEYRELTLNSYKVSIPIINQDDVEAIKSQSVENNLNINQIVNFLYTVGQKWKSENYSRRLTYIRDLVRFLGYSPEMAKLEANWISMILSSKSALYDIVETELGSRHIVDEWLPQGDCYVKAMPKGKSVHLLAGNVPLSGVTSIIRAILTKNECIIKTSSADPFTAIALASSFIDTDEHHPISRSMSVMYWSHNEDIAIPQQIMNCADVVVSWGGYDAIKWATEHTPVNVDILKFGPKKSIAIVDNPVDITASAIGVAHDICFYDQQACFSTQDIYYIGDNIDAFFDELVEQLNLYMDILPKGDQTFDEKASFSLIEKECQFAKYKVEKGDNQSWLLVKSPLGSFGNQPLARSAYIHHVSDISEITPYIENRITQTVTVTPWESSFKYRDVLASHGAERIVESGMNNIFRVGGAHDGMRPLQRLVKYISHERPYTYSTKDVAVKIEQTRYLEEDKFLVFVP
stoichiometry N: 4
